Data on one molecule can be found in article PMC1669725.

The target of the data set is Sp1 zinc-finger DNA-binding domain (truncated Sp1) (UniProt P08047 619-774). Nature of the data set: fluorescence correlation spectroscopy.
Chain of Sp1 zinc-finger DNA-binding domain (truncated Sp1) (P08047 619-774): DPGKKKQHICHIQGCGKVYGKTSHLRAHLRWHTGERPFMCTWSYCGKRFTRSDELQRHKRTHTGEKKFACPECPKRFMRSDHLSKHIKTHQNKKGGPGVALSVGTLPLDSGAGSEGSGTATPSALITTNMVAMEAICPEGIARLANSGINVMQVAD

B1: HIV LTR Sp1 site 23 bp (dsDNA)
DNA 1: ACTTTCCAGGGAGGCGTGGCCTG
DNA 2: CAGGCCACGCCTCCCTGGAAAGT
The Kd is the equilibrium constant for the complex coming apart. Take B1: the Kd was 32 ± 2 nM.
